For this assay, the target named is ConCv5 KIKO 473T SOSIP soluble gp140 Env trimer (HIV-1 (clade C consensus)). In words: SEC; analytical size exclusion chromatography of 10 µg of the final purified protein pool. In general terms: Size exclusion chromatography separates by hydrodynamic size, large species first.

In general, stoichiometry N refers to a count of units in the complex or per binding partner. Substance “ConCv5 KIKO 473T SOSIP soluble gp140 Env trimer (complex)” came in with a stoichiometry N of 3.

Source of the values: publication PMC10690772.
